Consider 1 substance from PMC6288486.

For the series, the system named is His9. The series can be described thus: UV-vis. To be noted: 25 °C; none; pH adjusted with NaOH (1, 0.1, 0.01 M) and TFA (0.1 and 1% v/v in water); Mn(III) resting state, 15 µM. Transition from bis-aquo (species 1) to His-aquo (species 2) axial coordination. Helical fold stabilised by 40% TFE.

The substance “Mn-Mimochrome VI*a (Mn-MC6*a) (synthetic construct)” displayed a pKa of 4.0.
